According to US20220017612A1 (TILOS THERAPEUTICS, published 2022):

Experiments:
[1] = target: T1, chicken LAP-TGFβ1 on HT1080 cells (chicken, UniProt P09531 19-391); assay: flow cytometry, HT1080 cells
T1 construct: also called chB1
T1 sequence: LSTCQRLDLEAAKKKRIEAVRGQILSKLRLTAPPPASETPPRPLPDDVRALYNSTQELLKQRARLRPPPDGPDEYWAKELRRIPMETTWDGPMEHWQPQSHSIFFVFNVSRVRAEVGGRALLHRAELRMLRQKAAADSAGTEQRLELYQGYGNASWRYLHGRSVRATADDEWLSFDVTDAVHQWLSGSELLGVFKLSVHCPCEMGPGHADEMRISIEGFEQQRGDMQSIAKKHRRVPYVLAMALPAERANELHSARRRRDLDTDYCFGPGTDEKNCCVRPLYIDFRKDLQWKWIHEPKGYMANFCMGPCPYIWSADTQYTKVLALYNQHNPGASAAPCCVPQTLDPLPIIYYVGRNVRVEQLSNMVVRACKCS
Description: (§1) These constructs were subcloned into lentivirus and transduced into HT1080 cells. Successful gene integration was confirmed by expression of a green fluorescent protein (GFP) reporter gene. LAP-TGFβ1 expression was evaluated by flow cytometry using a rabbit monoclonal antibody (Rmab) raised against a peptide from the mature cytokine (residues 250-361) domain (Abeam cat #ab179695), 28G11_(hyb) and 2C9_(hyb). Briefly, 4×10⁵ each of (a) HT1080 cells, (b) HT1080 cells overexpressing human LAP-TGFβ1, (c) HT1080 cells overexpressing chicken LAP-TGFβ1, and (d) HT1080 cells overexpressing human/chicken chimeras #1-#7 were cultured in 96-well plates. The plates were centrifuged for 5 min at 1,500 rpm, liquid was removed, and cells were resuspended with 200 μL FACS buffer. The plates were centrifuged again, diluted primary antibody was added to each well, and the plates were incubated on ice for 20 minutes, followed by centrifugation. The cells were resuspended in 200 μL FACS buffer, centrifuged again, and resuspended in 50 μL diluted secondary antibody (APC-anti-Mouse IgG). The plates were incubated on ice for 20 minutes in the dark, washed twice with 200 μL FACS buffer, and cells from each well (in 200 μL FACS buffer) were read on the Attune NXT instrument. The antibodies were considered to be binding if >10% of cells were GFP+/APC+ and there was visible correlation between the GFP and allophycocyanin (APC) signals (Table 5).

[2] = target: T2, human-chicken LAP-TGFβ1 chimera #2.1 on HT1080 cells (human/chicken chimera, UniProt P01137 30-390); assay: flow cytometry, HT1080 cells
Description: as §1

[3] = target: T3, human-chicken LAP-TGFβ1 chimera #2.2 on HT1080 cells (human/chicken chimera, UniProt P01137 30-390); assay: flow cytometry, HT1080 cells
T3 construct: also called HT1080-ch2.2
Description: as §1

[4] = target: T4, human LAP-TGFβ1 overexpressed on cells (human, UniProt P01137 30-390); assay: flow cytometry, transduced HT1080 cells
T4 construct: HT1080 or P3U1 cells overexpressing wild-type human LAP-TGFβ1; also called HT1080-huB1; HT1080-hβ1
Description: as §1

[5] = target: T1, chicken LAP-TGFβ1 on HT1080 cells; assay: flow cytometry, transduced HT1080 cells
Description: as §1

[6] = target: human-chicken LAP-TGFβ1 chimera #1.2 on HT1080 cells (human/chicken chimera, UniProt P01137 30-390); assay: flow cytometry, transduced HT1080 cells
Description: as §1

[7] = target: human-chicken LAP-TGFβ1 chimera #1.3 on HT1080 cells (human/chicken chimera, UniProt P01137 30-390); assay: flow cytometry, transduced HT1080 cells
Description: as §1

[8] = target: T2, human-chicken LAP-TGFβ1 chimera #2.1 on …; assay: flow cytometry, transduced HT1080 cells
Description: as §1

[9] = target: T3, human-chicken LAP-TGFβ1 chimera #2.2 on …; assay: flow cytometry, transduced HT1080 cells
Description: as §1

[10] = target: T5, human-chicken LAP-TGFβ1 chimera #2.3 on HT1080 cells (human/chicken chimera, UniProt P01137 30-390); assay: flow cytometry, transduced HT1080 cells
T5 construct: also called HT1080-ch2.3
Description: as §1

[11] = target: human-chicken LAP-TGFβ1 chimera #3 on HT1080 cells (human/chicken chimera, UniProt P01137 30-390); assay: flow cytometry, transduced HT1080 cells
Description: as §1

[12] = target: T6, human-chicken LAP-TGFβ1 chimera #4 on HT1080 cells (human/chicken chimera, UniProt P01137 30-390); assay: flow cytometry, transduced HT1080 cells
T6 construct: also called HT1080-ch4
Description: as §1

[13] = target: human-chicken LAP-TGFβ1 chimera #5 on HT1080 cells (human/chicken chimera); assay: flow cytometry, transduced HT1080 cells
Description: as §1

[14] = target: human-chicken LAP-TGFβ1 chimera #6 on HT1080 cells (human/chicken chimera, UniProt P01137 30-390); assay: flow cytometry, transduced HT1080 cells
Description: as §1

[15] = target: human-chicken LAP-TGFβ1 chimera #7 on HT1080 cells (human/chicken chimera, UniProt P01137 30-390); assay: flow cytometry, transduced HT1080 cells
Description: as §1

[16] = target: T7, LAP-TGFβ1 on U937 cells (Homo sapiens, UniProt P01137); assay: flow cytometry, U937 cells, Alexa 647 antibody, % LAP+ cells
T7 construct: cell surface, endogenous; also called LAP+ U937 cells
Description: (§2) Anti-LAP antibodies were tested for their ability to bind to U937 cells, a myeloid cell line derived from a patient with histiocytic lymphoma. U937 cells were incubated with FACS buffer and human Fc block followed by incubation with varying concentrations of Alexa 647 conjugated 28G11_hyb, 22F9_mIgG2a, or 20E6_mIgG2a. In a separate experiment U937 cells were incubated with FACS buffer and human Fc block followed by incubation with 10 ug/ml of Alexa 647 conjugated 28G11_hyb, 22F9_mIgG2a, 20E6_mIgG2a or mIgG2a isotype control (FIGS. 10E and 10F). Representative dot plots are shown in FIG. 10G; in these plots, antibodies were at 10 ug/ml.

[17] = target: T7, LAP-TGFβ1 on U937 cells; assay: flow cytometry dot plot against GARP, U937 cells, Alexa 647 antibody at 10 ug/ml
Description: as §2

T7 sequence (P01137 30-390 limits assumed): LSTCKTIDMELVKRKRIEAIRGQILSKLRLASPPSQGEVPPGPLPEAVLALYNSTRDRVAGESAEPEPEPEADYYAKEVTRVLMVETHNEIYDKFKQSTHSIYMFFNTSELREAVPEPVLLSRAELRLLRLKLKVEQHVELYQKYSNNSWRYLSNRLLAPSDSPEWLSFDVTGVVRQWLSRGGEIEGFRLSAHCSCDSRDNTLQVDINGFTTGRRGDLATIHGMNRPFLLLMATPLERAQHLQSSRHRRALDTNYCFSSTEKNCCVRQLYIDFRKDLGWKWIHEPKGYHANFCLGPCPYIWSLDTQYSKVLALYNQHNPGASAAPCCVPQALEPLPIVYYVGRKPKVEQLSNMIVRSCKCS
T3 sequence (P01137 other isoform, or with tags, fused parts or gaps mutant): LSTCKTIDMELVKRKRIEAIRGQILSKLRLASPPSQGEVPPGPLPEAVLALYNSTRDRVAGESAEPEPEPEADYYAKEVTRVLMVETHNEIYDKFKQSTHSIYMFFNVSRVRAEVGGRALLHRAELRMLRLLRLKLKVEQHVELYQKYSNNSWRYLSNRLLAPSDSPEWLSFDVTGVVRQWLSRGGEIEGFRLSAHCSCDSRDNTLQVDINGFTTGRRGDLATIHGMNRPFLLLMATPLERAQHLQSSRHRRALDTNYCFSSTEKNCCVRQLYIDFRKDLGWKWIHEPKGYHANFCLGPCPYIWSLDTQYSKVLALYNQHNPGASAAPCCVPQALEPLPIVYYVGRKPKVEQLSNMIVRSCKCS
T2 sequence (P01137 other isoform, or with tags, fused parts or gaps mutant): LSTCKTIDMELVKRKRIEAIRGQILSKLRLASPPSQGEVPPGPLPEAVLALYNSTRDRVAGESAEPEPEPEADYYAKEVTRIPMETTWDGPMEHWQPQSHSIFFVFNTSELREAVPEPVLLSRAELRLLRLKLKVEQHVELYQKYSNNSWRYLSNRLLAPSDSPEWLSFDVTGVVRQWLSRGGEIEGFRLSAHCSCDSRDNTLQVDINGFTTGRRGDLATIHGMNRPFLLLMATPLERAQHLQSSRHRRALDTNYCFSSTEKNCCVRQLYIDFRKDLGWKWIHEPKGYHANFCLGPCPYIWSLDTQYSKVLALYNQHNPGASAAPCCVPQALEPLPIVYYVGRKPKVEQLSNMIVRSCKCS
Chain of human-chicken LAP-TGFβ1 chimera #5 on HT1080 cells (human/chicken chimera) (chain, as listed by the source mutant limits assumed): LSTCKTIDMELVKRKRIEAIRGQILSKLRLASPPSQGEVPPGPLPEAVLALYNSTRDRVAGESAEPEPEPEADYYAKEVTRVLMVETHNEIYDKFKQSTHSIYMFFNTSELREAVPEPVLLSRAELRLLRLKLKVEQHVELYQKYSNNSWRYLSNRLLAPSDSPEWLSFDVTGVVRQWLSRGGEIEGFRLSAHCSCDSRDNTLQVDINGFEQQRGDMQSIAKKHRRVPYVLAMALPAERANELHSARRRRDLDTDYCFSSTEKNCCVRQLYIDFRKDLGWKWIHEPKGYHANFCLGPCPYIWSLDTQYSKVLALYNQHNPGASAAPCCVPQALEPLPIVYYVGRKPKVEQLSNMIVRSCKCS
T4 sequence (P01137 30-390): as the sequence (P01137 30-390 limits assumed) above
Chain of human-chicken LAP-TGFβ1 chimera #1.3 on HT1080 cells (P01137 other isoform, or with tags, fused parts or gaps mutant): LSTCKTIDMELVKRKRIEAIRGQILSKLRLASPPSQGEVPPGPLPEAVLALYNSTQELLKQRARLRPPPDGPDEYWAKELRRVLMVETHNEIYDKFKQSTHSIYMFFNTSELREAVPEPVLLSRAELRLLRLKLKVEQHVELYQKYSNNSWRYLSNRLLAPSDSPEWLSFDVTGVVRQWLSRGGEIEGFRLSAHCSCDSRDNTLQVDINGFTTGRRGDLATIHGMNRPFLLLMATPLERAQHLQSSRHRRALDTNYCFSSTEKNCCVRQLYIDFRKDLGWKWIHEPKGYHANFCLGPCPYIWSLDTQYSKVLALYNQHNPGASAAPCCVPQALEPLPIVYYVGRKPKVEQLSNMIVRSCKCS
Chain of human-chicken LAP-TGFβ1 chimera #6 on HT1080 cells (P01137 other isoform, or with tags, fused parts or gaps mutant): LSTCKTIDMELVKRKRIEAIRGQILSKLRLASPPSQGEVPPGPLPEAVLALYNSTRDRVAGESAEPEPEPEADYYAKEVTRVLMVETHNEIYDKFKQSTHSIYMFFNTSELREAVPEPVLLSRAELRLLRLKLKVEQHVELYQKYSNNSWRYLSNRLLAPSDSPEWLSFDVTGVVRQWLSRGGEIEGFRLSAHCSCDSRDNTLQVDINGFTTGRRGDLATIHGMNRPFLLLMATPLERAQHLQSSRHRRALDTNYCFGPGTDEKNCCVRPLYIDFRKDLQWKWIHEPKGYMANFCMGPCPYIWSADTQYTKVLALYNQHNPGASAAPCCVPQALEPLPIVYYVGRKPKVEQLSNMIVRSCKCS
T6 sequence (P01137 other isoform, or with tags, fused parts or gaps mutant): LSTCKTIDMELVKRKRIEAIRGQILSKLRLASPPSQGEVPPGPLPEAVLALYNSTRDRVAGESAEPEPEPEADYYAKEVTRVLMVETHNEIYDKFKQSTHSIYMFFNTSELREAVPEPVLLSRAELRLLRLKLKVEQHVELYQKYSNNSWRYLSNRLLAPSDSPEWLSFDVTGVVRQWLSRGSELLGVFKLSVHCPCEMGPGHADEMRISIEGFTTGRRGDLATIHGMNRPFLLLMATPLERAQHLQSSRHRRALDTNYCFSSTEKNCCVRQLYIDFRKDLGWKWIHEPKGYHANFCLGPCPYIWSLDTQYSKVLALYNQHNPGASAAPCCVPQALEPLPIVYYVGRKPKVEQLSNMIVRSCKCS
Chain of human-chicken LAP-TGFβ1 chimera #1.2 on HT1080 cells (P01137 other isoform, or with tags, fused parts or gaps mutant): as the sequence (P01137 30-390 limits assumed) above, with A31T, S32A, S35P, Q36A, G37S, V39T, G42R, E46D, A47D, L49R counted along it
Chain of human-chicken LAP-TGFβ1 chimera #3 on HT1080 cells (P01137 other isoform, or with tags, fused parts or gaps mutant): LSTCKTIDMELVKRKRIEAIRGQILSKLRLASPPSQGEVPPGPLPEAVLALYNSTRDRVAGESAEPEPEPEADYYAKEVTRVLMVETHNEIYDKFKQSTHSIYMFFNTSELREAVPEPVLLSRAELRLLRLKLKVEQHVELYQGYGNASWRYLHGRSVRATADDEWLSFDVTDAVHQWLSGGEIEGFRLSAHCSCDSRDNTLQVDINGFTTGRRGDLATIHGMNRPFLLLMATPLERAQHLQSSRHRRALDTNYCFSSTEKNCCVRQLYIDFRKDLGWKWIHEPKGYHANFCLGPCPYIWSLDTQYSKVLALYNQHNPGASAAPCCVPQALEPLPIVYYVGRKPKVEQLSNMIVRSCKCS
T5 sequence (P01137 other isoform, or with tags, fused parts or gaps mutant): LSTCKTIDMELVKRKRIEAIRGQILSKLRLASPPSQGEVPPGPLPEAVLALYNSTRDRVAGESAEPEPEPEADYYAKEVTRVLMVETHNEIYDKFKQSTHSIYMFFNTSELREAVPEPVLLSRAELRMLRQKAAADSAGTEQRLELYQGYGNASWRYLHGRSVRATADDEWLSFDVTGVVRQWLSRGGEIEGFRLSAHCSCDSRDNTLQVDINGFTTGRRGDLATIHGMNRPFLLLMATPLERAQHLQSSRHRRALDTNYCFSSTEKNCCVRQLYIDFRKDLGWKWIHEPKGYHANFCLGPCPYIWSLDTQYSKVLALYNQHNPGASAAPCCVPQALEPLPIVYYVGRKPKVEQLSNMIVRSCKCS

B1: 28G11_(hyb) (antibody, mouse IgG2b, kappa, V domains shown)
VH: EVKLVESGGGLVQPGGSLSLSCAASGFTFTDYYMSWVRQPPGKALEWLGFIRNKPNGYTTEYSASVKGRFTISRDNSQSILYLQMNVLRAEDSATYYCARYTGGGYFDYWGQGTTLTVSS
VL: DIQMTQTTSSLSASLGDRLTISCRASQDISNYLNWYQQKPDGTVKLLIYYTSRLHSGVPSRFSGSGSGTDYSLTISNLEQADIATYFCQQGDTLPWTFGGGTKLEIKR
notes: parental murine antibody; also called murine hybridoma 28G11; biotin-28G11
- binding result [1]: no binding
- binding result [2]: no binding
- binding result [3]: no binding
- % GFP+/APC+ cells [4]: 98.3%
- % GFP+/APC+ cells [5]: 0.3%
- % GFP+/APC+ cells [6]: 84.1%
- % GFP+/APC+ cells [7]: 83%
- % GFP+/APC+ cells [8]: 3.5%
- % GFP+/APC+ cells [9]: 0.5%
- % GFP+/APC+ cells [10]: 94.7%
- % GFP+/APC+ cells [11]: 32.2%
- % GFP+/APC+ cells [12]: 76.2%
- % GFP+/APC+ cells [13]: 41.7%
- % GFP+/APC+ cells [14]: 84.9%
- % GFP+/APC+ cells [15]: 44.4%
- EC50 (read off the curve) [16]: ~30 µg/mL
- % of cells in Q1 (antibody axis positive, GARP negative) [17]: 6.56%
- % of cells in Q2 (antibody axis positive, GARP positive) [17]: 0.16%
